Results as given in PMC4255369 (2014).

Key:
Experiment in all cases: SPR
[1] = biological target: human tau protein isoform 2N4R (human, UniProt P10636-8 1-441)
[2] = biological target: human tau protein isoform 2N3R (human, UniProt P10636-5 1-410)
[3] = biological target: mis-disordered tau 151-391/3R (human, UniProt P10636-5 151-391)
[4] = biological target: mis-disordered tau protein 151-391/4R (human, UniProt P10636-8 151-391)
mis-disordered tau protein 151-391/4R, sequence (P10636 468-708): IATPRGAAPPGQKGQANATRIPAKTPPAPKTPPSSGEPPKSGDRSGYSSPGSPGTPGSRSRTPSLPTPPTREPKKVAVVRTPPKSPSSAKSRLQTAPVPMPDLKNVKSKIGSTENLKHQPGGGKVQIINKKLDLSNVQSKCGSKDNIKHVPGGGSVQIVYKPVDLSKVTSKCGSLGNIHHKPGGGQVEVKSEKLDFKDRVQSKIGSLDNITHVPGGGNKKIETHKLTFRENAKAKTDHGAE

human tau protein isoform 2N4R, sequence (P10636 other isoform, or with tags, fused parts or gaps): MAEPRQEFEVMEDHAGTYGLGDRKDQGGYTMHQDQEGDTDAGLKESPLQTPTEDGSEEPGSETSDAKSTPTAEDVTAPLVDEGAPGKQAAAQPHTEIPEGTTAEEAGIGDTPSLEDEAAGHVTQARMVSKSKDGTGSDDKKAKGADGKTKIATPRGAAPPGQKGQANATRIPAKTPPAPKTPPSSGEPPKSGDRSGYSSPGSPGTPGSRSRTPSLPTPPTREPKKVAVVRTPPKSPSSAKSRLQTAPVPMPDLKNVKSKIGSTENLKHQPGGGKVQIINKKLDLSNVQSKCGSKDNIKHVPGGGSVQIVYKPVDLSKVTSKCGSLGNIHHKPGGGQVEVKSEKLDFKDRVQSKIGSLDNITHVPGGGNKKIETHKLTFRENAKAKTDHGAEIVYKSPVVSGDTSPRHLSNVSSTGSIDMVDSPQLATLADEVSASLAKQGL
human tau protein isoform 2N3R, sequence (P10636 other isoform, or with tags, fused parts or gaps): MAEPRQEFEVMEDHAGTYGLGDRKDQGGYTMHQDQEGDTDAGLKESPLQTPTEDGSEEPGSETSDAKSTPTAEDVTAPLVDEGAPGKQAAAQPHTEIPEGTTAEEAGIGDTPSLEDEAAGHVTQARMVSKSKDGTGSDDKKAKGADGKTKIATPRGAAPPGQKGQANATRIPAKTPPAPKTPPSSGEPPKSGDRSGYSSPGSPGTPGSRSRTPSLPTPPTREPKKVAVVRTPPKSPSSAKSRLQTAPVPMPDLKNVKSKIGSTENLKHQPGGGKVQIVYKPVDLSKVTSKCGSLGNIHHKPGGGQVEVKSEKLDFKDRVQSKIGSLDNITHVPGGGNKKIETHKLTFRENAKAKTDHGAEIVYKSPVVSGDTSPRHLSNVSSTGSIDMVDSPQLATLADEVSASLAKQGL
mis-disordered tau 151-391/3R, sequence (P10636 other isoform, or with tags, fused parts or gaps): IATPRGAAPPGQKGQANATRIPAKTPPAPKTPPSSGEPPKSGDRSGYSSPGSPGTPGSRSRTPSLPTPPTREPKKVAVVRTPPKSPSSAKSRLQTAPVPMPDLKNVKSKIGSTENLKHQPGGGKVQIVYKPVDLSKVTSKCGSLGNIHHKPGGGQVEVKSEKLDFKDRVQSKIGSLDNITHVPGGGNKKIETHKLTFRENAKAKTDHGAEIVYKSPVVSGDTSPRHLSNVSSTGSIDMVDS

Ka [1]: 1.1e+07 M⁻¹
Ka [2]: 80000 M⁻¹
Ka [3]: 1.9e+06 M⁻¹
Ka [4]: 7.3e+07 M⁻¹
B1: monoclonal antibody DC8E8 (antibody, V domains shown)
VH: QVQLQQSGPELVKPGTSVKMPCKASGYIFTDYVISWVKQRTGQGLEWIGEIFPRSGSTYYNEKFKGKATLTADKSSNTAYMQLSSVTSEDSAVYFCARDYYGTSFAMDYWGQGTSVTVSS
VL: DIVMSQSPSSLAVSAGEKVTMSCKSSQSLLNSRTRKNYLAWYQQKPGQSPKLLIYWASTRESGVPDRFTGSGSGTDFTLTISSVQAEDLAVYYCKQSFYLRTFGGGTKLDIK
